Experimental data published in patent publication US20140178332A1 (published 2014).

T1: recombinant purified human IL-12 p70 (human, UniProt P29459 23-219)
T1 sequence 1: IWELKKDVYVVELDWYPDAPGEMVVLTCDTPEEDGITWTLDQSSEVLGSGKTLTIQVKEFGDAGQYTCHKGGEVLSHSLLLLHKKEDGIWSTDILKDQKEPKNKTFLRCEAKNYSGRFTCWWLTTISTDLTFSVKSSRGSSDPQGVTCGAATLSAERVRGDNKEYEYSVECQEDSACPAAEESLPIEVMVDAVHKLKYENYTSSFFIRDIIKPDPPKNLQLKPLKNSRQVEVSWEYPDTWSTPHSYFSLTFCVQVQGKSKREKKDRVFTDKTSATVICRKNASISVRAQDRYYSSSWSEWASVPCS
T1 sequence 2: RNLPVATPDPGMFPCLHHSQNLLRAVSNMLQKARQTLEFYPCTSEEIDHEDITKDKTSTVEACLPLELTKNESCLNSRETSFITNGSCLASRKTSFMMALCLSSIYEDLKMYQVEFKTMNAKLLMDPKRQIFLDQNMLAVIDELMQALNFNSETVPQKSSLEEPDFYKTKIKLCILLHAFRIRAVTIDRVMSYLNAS

T2: recombinant purified mouse IL-12 (Peprotech) (mouse, UniProt P43432 23-335; P43431 23-215)
T2 construct: Bought reagent; also called mu IL-12; murine IL-12
T2 sequence (looked up) 1: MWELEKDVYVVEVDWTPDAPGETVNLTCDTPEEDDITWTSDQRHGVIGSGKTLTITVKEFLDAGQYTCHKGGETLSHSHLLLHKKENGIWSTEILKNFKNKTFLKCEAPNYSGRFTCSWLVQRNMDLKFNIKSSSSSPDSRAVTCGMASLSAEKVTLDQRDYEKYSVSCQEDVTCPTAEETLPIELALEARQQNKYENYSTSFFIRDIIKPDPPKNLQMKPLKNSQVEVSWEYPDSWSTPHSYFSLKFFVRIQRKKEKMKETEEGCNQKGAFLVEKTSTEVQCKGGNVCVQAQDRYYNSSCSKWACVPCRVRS
T2 sequence (looked up) 2: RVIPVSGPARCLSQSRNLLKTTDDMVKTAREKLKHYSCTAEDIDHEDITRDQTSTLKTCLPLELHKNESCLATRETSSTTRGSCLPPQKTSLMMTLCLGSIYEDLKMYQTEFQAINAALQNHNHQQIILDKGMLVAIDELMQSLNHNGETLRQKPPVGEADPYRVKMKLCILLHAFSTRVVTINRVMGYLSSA

T3: recombinant purified cyno IL-12 p70 (cynomolgus monkey)
T3 chain 1: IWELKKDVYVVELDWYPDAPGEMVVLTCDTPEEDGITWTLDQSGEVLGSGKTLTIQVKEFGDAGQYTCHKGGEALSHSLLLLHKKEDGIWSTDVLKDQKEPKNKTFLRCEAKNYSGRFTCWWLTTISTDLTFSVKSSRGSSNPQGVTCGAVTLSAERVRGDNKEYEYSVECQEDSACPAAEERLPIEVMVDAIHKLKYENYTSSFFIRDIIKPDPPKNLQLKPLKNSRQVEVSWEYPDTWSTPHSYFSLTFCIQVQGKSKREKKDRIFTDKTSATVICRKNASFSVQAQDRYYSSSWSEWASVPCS
T3 chain 2: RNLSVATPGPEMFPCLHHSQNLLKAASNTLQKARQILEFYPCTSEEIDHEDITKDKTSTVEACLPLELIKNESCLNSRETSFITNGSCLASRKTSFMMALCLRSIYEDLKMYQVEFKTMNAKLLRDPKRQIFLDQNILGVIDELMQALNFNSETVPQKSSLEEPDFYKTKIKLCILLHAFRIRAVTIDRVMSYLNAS


Key:
[1] = biological target: T1, recombinant purified human IL-12 p70; assay: cell-based or functional assay
[2] = biological target: T2, recombinant purified mouse IL-12 …; assay: direct ELISA, plate coated with 5 ug/ml recombinant mouse IL-12
Procedure: To determine whether the ten monoclonal antibodies described above recognize murine IL-12, two ELISAs were set up. First, a direct ELISA was set up by directly coating ELISA plates with 5 ug/ml of recombinant purified mouse IL-12 (Peprotech). Murine-anti-human IL-12 p40 mAbs were prepared at various concentrations ranging from 3 to 200 ng/ml in PBS containing 0.1% BSA (Sigma, St. Louis, Mo.). 50 μl of each antibody dilution was added to the coated ELISA plate and incubated for 1 hour at room temperature. Wells were washed 3 times with PBS containing 0.05% Tween-20. Anti-mouse IgG-HRP antibody (R&D #HAF007, Minneapolis, Minn.) was diluted 1:2000 in PBS containing 0.1% BSA; 50 ul/well was added and the plates incubated for 1 hour at room temperature. Fifty microliters of TMB solution (Sigma # T0440, St. Louis, Mo.) was added to each well and incubated for 10 minutes at room temperature. The reaction was stopped by addition of 2N sulphuric acid. Plates were read spectrophotmetrically at a wavelength of 450 nm.

[3] = biological target: T1, recombinant purified human IL-12 p70; assay: SPR (Biacore), mAb captured on anti-mouse IgG Fc, IL-12 p70 as analyte
Procedure: The BIACORE assay (Biacore, Inc, Piscataway, N.J.) determines the affinity of antibodies with kinetic measurements of on-, off-rate constants. Binding of antibodies to recombinant purified human IL-12 p70 or recombinant purified human IL-12 p40 were determined by surface plasmon resonance-based measurements with a Biacore® 3000 instrument (Biacore® AB, Uppsala, Sweden) using running HBS-EP (10 mM HEPES [pH 7.4], 150 mM NaCl, 3 mM EDTA, and 0.005% surfactant P20) at 25° C. All chemicals were obtained from Biacore® AB (Uppsala, Sweden) or otherwise from a different source as described in the text. Approximately 5000 RU of goat anti-mouse IgG, (Fcγ), fragment specific polyclonal antibody (Pierce Biotechnology Inc, Rockford, Ill.) diluted in 10 mM sodium acetate (pH 4.5) was directly immobilized across a CM5 research grade biosensor chip using a standard amine coupling kit according to manufacturer's instructions and procedures at 25 μg/ml. Unreacted moieties on the biosensor surface were blocked with ethanolamine. Modified carboxymethyl dextran surface in flowcell 2 and 4 was used as a reaction surface. Unmodified carboxymethyl dextran without goat anti-mouse IgG in flow cell 1 and 3 was used as the reference surface. For kinetic analysis, rate equations derived from the 1:1 Langmuir binding model were fitted simultaneously to association and dissociation phases of all eight injections (using global fit analysis) with the use of Biaevaluation 4.0.1 software. Purified antibodies were diluted in HEPES-buffered saline for capture across goat anti-mouse IgG specific reaction surfaces. Mouse antibodies to be captured as a ligand (25 μg/ml) were injected over reaction matrices at a flow rate of 5 μl/min. The association and dissociation rate constants, kₒₙ (unit M⁻¹ s⁻¹) and koff (unit s⁻¹) were determined under a continuous flow rate of 25 μl/min. Rate constants were derived by making kinetic binding measurements at ten different antigen concentrations ranging from 10-200 nM. The equilibrium dissociation constant (unit M) of the reaction between mouse antibodies and recombinant purified human IL-12 p70 or recombinant purified human IL-12 p40 was then calculated from the kinetic rate constants by the following formula: KD=koff/kₒₙ. Binding is recorded as a function of time and kinetic rate constants are calculated.

[4] = biological target: T3, recombinant purified cyno IL-12 p70; assay: cell-based or functional assay

Row | Binder | Average IC50 (nM) Human IL-12, PHA blast IFN-γ assay [1] [nM] | binding result [2] | Kd [3] [pM] | koff [3] [s⁻¹] | kon [3] [M⁻¹ s⁻¹] | Average IC50 (nM) Cyno IL-12, PHA blast IFN-γ assay [4] [nM]
1 | murine anti-human IL-12p40 monoclonal antibody 3A11 (antibody, V domains shown, Murine mAb) VH: EVQLQQSGADLEKPGASVKLSCTASGFNIKDTFMHWVKQRPEQGLEWIGRIDPANGHTKYDPKFQGKATITADTSSNTAYLQLSSLTSEDTAVYYCARWGQFGLLWNAMDYWGQGTSVTVSS VL: not shown | 3.4 | no binding (tested: 3 to 200 ng/ml mAb) | 1200 | 0.00019 | 150000 | –
2 | murine anti-human IL-12p40 monoclonal antibody 1D4 (antibody, V domains shown, Murine mAb purified from hybridoma supernatant) VH: QVTLKESGPGILQPSQTLSLTCSFSGFSLRKSVMGVSWIRQPSGKGLEWLAHIYWDDDKYYNPSLKSRLTISKDPSRNQVFLKITSVDTADAATYYCTRRGIRSAMDYWGQGTSVTVSS VL: SVVMTQTPKFLLVSAGDRVTITCKASQSVSNDVAWYQQKPGQSPKLLIYYASNRYTGVPDRFTGSGYGTDFTFIISTVRAEDLAVYFCQQDYNSPWTFGGGTKLEIKR | 0.031 | no binding (tested: 3 to 200 ng/ml mAb) | 120 | 2.9e-05 | 250000 | 0.078
3 | murine anti-human IL-12p40 monoclonal antibody 1H6 (antibody, V domains shown, Murine mAb) VH: EVKLVESGGGLVQPGGSRKLSCAASGFTFSDYGMVWVRQAPGKGLEWVAYISSGSSTIHYADTMKGRFTISRDNPKNTLFLQMSSLRSEDTAMYYCARRHYYAMDYWGQGTSVTVSS VL: SFVMTQTPKFLLVSAGDRVTITCKASQSVSNDVAWYQQKPGQSPKLLIYYASNRYTGVPDRFTGTGYGTDFTFTISTVQAEDLAVYFCQQDYTSPFTFGSGTKLEIKR | 0.69 | no binding (tested: 3 to 200 ng/ml mAb) | 250 | 9.9e-05 | 430000 | 1.6
4 | murine anti-human IL-12p40 monoclonal antibody 1D8 (antibody, V domains shown, Murine mAb) VH: QVQLQQSGAELMKPGASVKISCKATGYTFSSYWIEWVKQRPGHGLEWIGDILPGSGSTNYNEKFKDKATFTADTSFNTAYMQLSSLTSEDSAVYYCATRRFRGLDYWGQGTTLTVSS VL: SIVMTQTPKFLLVSAGDRVTITCKASQSVSNDVAWYQQKSGQSPKLLIYYASNRYTGVPDRFTGSGYGTDFTFTISTVQPEDLAVYFCQQDYTSPFTFGSGTKLEIKR | 0.31 | no binding (tested: 3 to 200 ng/ml mAb) | 44 | 2.3e-05 | 510000 | 1.4
5 | murine anti-human IL-12p40 monoclonal antibody 5E8 (antibody, V domains shown, Murine mAb) VH: QIQLVQSGPELKKPGETVKISCKASGYSFTDYSMHWVKQAPGKGLKWMDWINTETGEPTYADDFKGRFAFSLETSASTAYLQINNLKNEDTATYFCSRRRYRAFDYWGQGTTLTVSS VL: SIVMTQSPKFLLVSAGDRVTITCKASQSVSNDVAWYQQKLGQSPKLLIYYASNRYTGVPDRFTGSGYGTDFTFTINTVQAEDLAVYFCQQDYTSPYTFGGGTKLEIQR | 12 | no binding (tested: 3 to 200 ng/ml mAb) | 4000 | 0.0023 | 570000 | –
6 | murine anti-human IL-12p40 monoclonal antibody 1A6 (antibody, V domains shown, Murine mAb) VH: QVTLKESGPGILKPSQTLSLTCSFSGFSLSTSGMGVSWIRQPSGKGLEWLAHIWWDGDNYYNPSLKSQLTISKDTSRNQVFLRIATVDTADTATYYCARRTRVNYAMDYWGQGTSVTVSS VL: SVVMTQTPKFLLVSAGDRVTITCKASQSVSNDVAWFQQKPGQSPKLLIYYASNRYTGVPDRFTGSGYGTDFTFTISTVQAEDLAVYFCQQDYNSPWTFGGGTKLEIKR | 0.052 | no binding (tested: 3 to 200 ng/ml mAb) | 230 | 3.5e-05 | 150000 | 0.044
7 | murine anti-human IL-12p40 monoclonal antibody 4B4 (antibody, V domains shown, Murine mAb) VH: QVTLKESGPGILKPSQTLSLTCSLSGFSLSTSGMGVSWIRQPSGKGLEWLAHIWWDGDSYSNPSLRSRLTISRDTSRNQVFLRIATVDTADTATYYCARRTRVNYAMDYWGQGTSVTVSS VL: SVVMTQTPKFLLVSAGDRVTMTCKASQSVSNDVAWFQQKPGQSPKLLIYYASNRYTGVPDRFTGSGYGTDFTFTISTVQAEDLAVYFCQQDYNSPWTFGGGTKLEIKR | 0.039 | no binding (tested: 3 to 200 ng/ml mAb) | 100 | 1.4e-05 | 130000 | 0.028
8 | murine anti-human IL-12p40 monoclonal antibody 7G3 (antibody, V domains shown, Murine mAb) VH: EVQLQQSGAEFVRSGASVKLSCTASGLNIKDYYIHWVKQRPEQVLDWIGWIDPENGYSEYAPRFQDKATMTADTSSNTAYLHLSSLTSEDTAVYYCNPGELARYFDYWGQGTTLTVSS VL: DIVLSQSPATLSVTPGDSVSLSCRASQSISKNLHWYQQKSHESPRLLIKYTSQSISGIPSRFSGSGSGTDFTLSINSVETEDFGMYFCQQSISWPLTFGAGTKLELKR | 0.047 | no binding (tested: 3 to 200 ng/ml mAb) | 270 | 0.00028 | 1.1e+06 | > 20
